What all share (conditions): both partners purified
Assay [1] addresses T1, SARS-CoV-2 spike glycoprotein, soluble (amino acids 1-1207) (SARS-CoV-2, Wuhan-Hu-1 (QHD43416), UniProt P0DTC2, proline substitution at position 986 | proline substitution at position 987 | …).
T1 construct: also called spike protein
The experiment in a line: ELISA; direct ELISA; plates coated with 2 μg/ml recombinant spike, S1, RBD or NTD; scFv-Fc detected with AP-conjugated anti-human IgG; specificity panel (Fig. 1c).

In assay [2] the target is T2, SARS-CoV-2 spike receptor-binding domain (RBD), monomeric (SARS-CoV-2, UniProt P0DTC2).
T2 construct: Called monomeric RBD in the BLI methods; Amino acids 1-15 are probably removed on secretion (surmise); also called monomeric RBD
The assay is described as above.

Assay [3] has as its target T2, SARS-CoV-2 spike receptor-binding …. Briefly: BLI; Octet; biotinylated scFv-Fc on streptavidin sensors; increasing concentrations of monomeric RBD, 300 s association, 600 s dissociation; 30 °C; 1:1 binding model.

Consider five molecules from paper PMC7452893 (Nature Communications, 2020).

Where a chain is given by its changes, count along the chain named.

B1: MD62 (antibody, V domains shown)
VH: EVQLVQSGGGLIQPGGSLRLSCAASGVTVSSNYMTWVRQAPGKGLEWVSLIYSGGSTYYADSVKGRFTISRDNSKNTLYLQMNSLRAEDTAVYYCARDLQYYGMDVWGQGTMVTVSS
VL: AIRMTQSPSSVSASVGDRVTITCRASQDIGSWLGWYQQKPGKAPKLLIYAASSLAGGVPSRFSGSGSGTDFTLTISSLQPEDFATYYCQQANSFPLTFGGGTKLEIK
notes: scFv-Fc format; also called MD62 scFv-Fc
Consider B1, for which the binding result in assay [1] is recorded as “binds”.

B2: MD47 (antibody, V domains shown)
V domain 1: QMQLVQSGGGLVQPGGSLRLSCAASGFTFSSYAMSWVRQAPGKGLEWVSAISSGGSTYYADSVKGRFTISRDNSKNTLYLQMNSLRAEDTAVYYCAKDLVTAPSYEAFDIWGQGTMITVSS
V domain 2: NFMLTQPPSVSVAPGKTARITCGGNNIGSKSVHWYQQKPGQAPVLVIYYDSDRPSGIPERFSGSNSGNTATLTISRVEAGDEADYYCQVWDSSSHHHVVFGGGTKGTVL
notes: scFv-Fc format; also called MD47 scFv-Fc
On to B2, for which the binding result in assay [2] is on record as “binds”.

B3: MD17 (antibody, V domains shown)
VH: EVQLLESGGGLVQPGGSLRLSCSASGFTFSTYVMNWVRQAPGKGLEHVSGISSDGGITYYADSVKGRFTISRDNSKNTLYLQMSSLRVEDTAVYYCVKDQDSSSWYDAFDIWGQGTMVTVSS
VL: DIVMTQSPSSLSASVGDRVTITCRASQSISNYLNWYQQKLGKAPKLLTYAASRLQSGVPSRFSASGSGTEFTLTISSLQPEDFATYYCQQSYTTPLTFGGGTKLEIK
notes: scFv-Fc format; also called MD17 scFv-Fc
Take B3: the binding result in assay [1] is listed as “binds”.

B4: MD29 (antibody, V domains shown)
VH: B3 VH with E1Q, V2M, L5V, E6Q, L45P
VL: NIRLTQSPSSLSASVGDRVTITCRATQSISSYLNWYQQKPGKAPNLLIYAASSLQSGVPSRFSGSGSGTDFTLTISSLQPEDFATYYCHQTYTSPYTFGQGTKLEIK
notes: scFv-Fc format; also called MD29 scFv-Fc
For the molecule B4, the binding result in assay [1] was “binds”. The molecule further displayed a Kd in assay [3] of 0.4 to 5.8 nM.

B5: MD67 (antibody, V domains shown)
VH: EVQLVESGGGLVQPGGSLRLSCAASGFTVSSNYMTWVRQAPGKGLEWVSVIYSGGSTFYADSVKGRFTISRHNSKNTLYLQMNSLRAEDTAVYYCARDLSVRGGMDVWGQGTTVTVSS
VL: not shown
notes: scFv-Fc format; also called MD67 scFv-Fc
Turning to B5, the Kd in assay [3] was in the range of 0.4 to 5.8 nM.
